The record followed here is US20150111836A1, “CELLULAR APOBEC3 PROTEINS AND MODULATORS THEREOF FOR REGULATING DNA REPAIR PROCESSES AND TREATING PROLIFERATIVE DISEASES” (priority 2012, published 2015).

Positions count from the first letter of the chain named. Names may count otherwise.

Data set [1] relates to SC or SU oligonucleotides (80 nt). Kind of data set: Electrophoretic mobility shift assay (EMSA) of ssDNA binding. The conditions noted are these: biotinylated SC oligonucleotides (80 nt), FIG. 3B. For orientation: A gel shift assay detects complexes by their altered migration in electrophoresis.
Protocol: SC (10 pmol) was 3′ labeled with dATP-biotin using 10 u terminal deoxynucleotidyl transferase (NEB) in NEBuffer 4 (NEB) supplemented with 0.25 mM CoCl2 and 10 μM dATP-biotin (Invitrogen). Labeled oligos (200 fmol) were incubated with A3G or RPA for 8 or 30 mM, respectively, at room temperature, in EMSA buffer: 50 mM Tris (pH 7.0), 50 mM NaCl, 0.1 mg/mL BSA and 10% glycerol, in 10 μL, reaction volume. Samples were resolved by 6% native PAGE, transferred to a Hybond N nylon membrane (GE Healthcare) using a semi-dry transfer apparatus (Biorad) and UV-crosslinked (302 nm) for 15 min. Following blocking with Casein blocking buffer (Sigma), the membrane was treated with horseradish peroxidase conjugated sterptavidine (Jackson) for 20 mM at RT, washed 6 times with TBS (pH 7.4) and visualized by enhanced chemiluminescence. […] Following incubation with A3G, samples were resolved by PAGE, stained with SYBR Gold (Molecular Probes) and visualized by UV light (302 nm).
For data set [2], the system named is primer with 3′-terminal CC. Kind of data set: Terminal cytidine deamination, DNA polymerase primer extension / PCR assay. The conditions noted are these: FIG. 4A. The class given is biochemical. On the procedure:
A3G deaminates the extreme base of the ssDNA 3′-terminus and tethers two ssDNA termini To determine whether A3G interacts with the terminal base of the ssDNA, the inventors tested terminal cytidine deamination by A3G. A primer with 3′-terminal CC was incubated with A3G and was then used for extension and PCR amplification of a target sequence. It was previously shown that A3G W285 residue contributes to formation of a hydrophobic cavity and is essential for catalytic activity. […] A cleavage resistant polynucleotide deaminase substrate, comprising an internal cytidine, was incubated with either A3G or A3G W285A. Upon deamination, the internal uridine-containing polynucleotide was susceptible to restriction, and yielded a fragment which was apparent in the PAGE analysis of the cleaved deamination products shown in FIG. 3C (bottom).

Data set [3] deals with ss-deoxyoligonucleotide substrate. The experiment in a line: Cytidine deaminase activity of purified wild-type and mutant A3G. The class given is biochemical. On the procedure:
Deaminase activity of purified enzyme and virion-associated A3G protein was examined as previously described. Briefly, A3G deamination reactions were performed in a total volume of 10 μl in 25 mM Tris, pH 7.0, and 0.01-1 fmol single-stranded (ss) deoxyoligonucleotide substrate at 37° C. The reaction was terminated by heating to 95° C. for 5 min. One μl of the reaction mixture was used for PCR amplification performed in 20 μl buffer S, using the following program: 1 cycle at 95° C. for 3 min, followed by 30 cycles of annealing at 61° C. for 30 s and denaturing at 94° C. for 30 s. Aliquots of the PCR products (10 μl) were incubated with Eco147I restriction enzyme for 1 h at 37° C. Completion of the restriction reaction was verified by using positive-control substrate containing CCU instead of CCC. Restriction-reaction products were loaded onto 14% gels and separated by PAGE. Gels were stained with SYBR gold nucleic acid stain diluted 1:10,000 in 0.5× Tris-Borate-EDTA buffer (TBE, pH 7.8), visualized by UV light (312 nm), captured by an Olympus C-5050 charge-coupled device (CCD) camera and analyzed by optical density (OD) scan using the TINA2.0 densitometry software. Assessment of A3G entrapped in virions was carried out with concentrated viruses stocks of 3-5 μg of p24/μl) suspended in PBS containing Triton X-100 at final concentration of 0.1% (vv) and 50 μg/ml RNase A (Sigma-Aldrich). […]

In data set [4] the test system is HRind cells (U2OS-DR-GFP). Kind of data set: DR-GFP HR reporter assay of ISceI-induced DSB repair. The conditions noted are these: expression plasmid transfected, 52 hours after ISceI induction, FIG. 11B. The class given is cell-based. On the procedure:
Repair of a unique ISceI-induced DSB by HR was assessed in U2OS-DR-GFP cells stably transfected with the Cherry-Sce-GR plasmid (HRind cells) as described in Shahar OD et al.. Cherry-ZScel-GR rapidly translocates from the cytoplasm into the nucleus on binding to triamcinolone acetonide (TA). The DR-GFP cassette enables reconstitution of GFP after ZScel-dependent HR between 2 mutated GFP sequences. Transfection of A3G or A3GW285A expression plasmids was performed in 24-well plates with GenJet (Signa-gen). Forty hours after transfection, IScel-directed DSB was induced with 10^7M TA (Sigma-Aldrich). GFP^+ cells were sorted 52 hours later by flow cytometry using FACScan as described in Shahar OD [10].
On the technique in general: Reporter assays use an easily measured gene product as a stand-in for the process of interest.

The subject of a further data set is SupT11 cells. Kind of data set: γ-H2AX foci in SupT11 cells stably expressing A3G variants after IR. The class given is cell-based, human. The conditions noted are these: 24 hours after IR (4 Gy), FIG. 9B. On the procedure:
Cells were irradiated by exposure to a ^60Co source producing 1 Gy sec^−1 γ-radiation, or mock-irradiated. Following incubation at 37° C., cells were fixed, attached to glass slides by cytospin, permeabilized with detergent and blocked with 10% normal goat serum. Cells were then incubated with A3G-specific rabbit polyclonal antibody, γ-H2AX-specific monoclonal antibody, or RPA32-specific monoclonal antibody, followed by incubation with goat anti-rabbit Cy-5-conjugated antibody, goat anti-mouse Cy-2-conjugated antibody and DAPI. Slides were mounted and examined by Zeiss LSM 710 confocal microscope. Data were collected sequentially using a ×63 objective with 7-fold averaging at a resolution of […], Z-sections were obtained using an optical slice of less than 1 μm. Data were analyzed with the Zen 2009.
To assess whether A3G cytidine deaminase activity is required for DSB repair, the inventors examined whether IR-Induced 7412AX focus formation occurred differentially in SupTH cells stably expressing A3G, an E259Q catalytic mutant (as denoted by SEQ ID NO. 90) or empty vector (EV).

Data set [5] relates to DNA1 and DNA2 ss-oligonucleotides. The experiment in a line: Terminal ssDNA tethering by DNA polymerase terminal extension. The class given is biochemical. The conditions noted are these: DNA1+2, FIG. 4D. On the procedure: DNA1 and DNA2 were annealed to an equimolar amount of a short oligonucleotide (30 nt) complementary to the 5′-termius by heating to 95° C. followed by slow cooling to RT. DNA-polymerase extension reactions were performed in a total volume of 7 μl and included 100 fmol annealed oligonucleotides, 50 μM dNTPs (dCTP, dGTP, dTTP and dATP-biotin (Invitrogen)), NEBuffer 1 (final dilution ×0.35 (NEB)), 1 mg/ml BSA, 100 fmol A3G or A3G W285A, and 5 u Klenow Fragment (3′→5′ exo(−), NEB). Reactions were incubated for 30 min at 37° C. and terminated by heating to 95° C. for 5 min and adding 5 μl formamide. Samples were then heated to 80° C. prior to loading on pre-heated 10% acrylamide gel containing 6M urea. Gels were washed in Tris-Boric acid-EDTA buffer (ph 8.3) for 15 min and transferred to nylon membranes as described in the EMSA protocol below.
To further investigate A3G-mediated terminal ssDNA tethering, the inventors developed a DNA polymerase extension assay depicted in FIG. 4C. The 5′-termini of two ss-oligonucleotides (DNA1 and DNA2, 80 nt) were annealed to complementary oligonucleotides (30 nt), leaving 3′ ssDNA overhangs. […] As expected, no extension products were detected in the presence or absence of wild-type or mutant A3G (not shown). […]

B1: A3G W285A: A3G W285A catalytic mutant, deaminase-dead control that binds ssDNA (protein)
chain: MKPHFRNTVERMYRDTFSYNFYNRPILSRRNTVWLCYEVKTKGPSRPPLDAKIFRGQVYSELKYHPEMRFFHWFSKWRKLHRDQEYEVTWYISWSPCTKCTRDMATFLAEDPKVTLTIFVARLYYFWDPDYQEALRSLCQKRDGPRATMKIMNYDEFQHCWSKFVYSQRELFEPWNNLPKYYILLHIMLGEILRHSMDPPTFTFNFNNEPWVRGRHETYLCYEVERMHNDTWVLLNQRRGFLCNQAPHKHGFLEGRHAELCFLDVIPFWKLDLDQDYRVTCFTSASPCFSCAQEMAKFISKNKHVSLCIFTARIYDDQGRCQEGLRTLAEAGAKISIMTYSEFKHCWDTFVDHQGCPFQPWDGLDEHSQDLSGRLRAILQNQEN
modifications: A3G W285A mutant
On to B1, for which the ssDNA binding properties entry in data set [1] is given as “retained wild-type ssDNA binding properties”. For the same molecule, the “PCR amplification after incubation of the primer” value in data set [2] is “normal PCR amplification”. Besides, the “catalytic activity (cytidine deamination)” value in data set [3] (purified protein, FIG. 3C) is “catalytically inactive”. Also, the “reduction of HR” value in data set [4] was 6.2%.

B2: A3G E259Q: A3G E259Q catalytic mutant stably expressed in SupT11 cells (protein)
chain: B1 chain with E259Q, A285W
modifications: A3G E259Q mutant
notes: A3G E259Q catalytic mutant stably expressed in SupT11 cells
On to B2, for which the “enhancement of DSB repair” value in the data set on SupT11 cells is “enhanced repair was not observed”.

B3: A3G: wild-type human APOBEC3G, purified with C-terminal His6 tag from 293T cells or expressed in cells (protein, listed as Homo sapiens)
chain: B1 chain with A285W
modifications: C-terminal His6 tag
notes: wild-type human APOBEC3G, purified with C-terminal His6 tag from 293T cells or expressed in cells
As for B3, in data set [2], the “inhibition of the PCR reaction after incubation of the primer” value is reported as approximately 90%. Also, the “dC in the oligonucleotide substrate deaminated” value in data set [3] (purified recombinant A3G alone, FIG. 14A) is reported as 20%. For the same molecule, the “extension efficiency relative to Klenow fragment alone” value in data set [5] is reported as “approximately 9 fold”. Also, the “reduction of HR” value in data set [4] amounted to 30.2%. For the same molecule, the “average DSB load (γ-H2AX focus formation), lower than EV control cells” value in the data set on SupT11 cells is “approximately 2 fold”.
